Experimental data taken from the supplement of paper PMC10065799, “High-throughput profiling of sequence recognition by tyrosine kinases and SH2 domains using bacterial peptide display” (eLife, 2023).

Key:
[1] = tested on: AncSZ; assay: phosphorylation enrichment, bacterial display (enrichment ratio); higher = better substrate or ligand; peptides without Tyr show the background
[2] = molecular target: EPHB1 (UniProt P54762); assay: as above
[3] = molecular target: EPHB2 (UniProt P29323); assay: as above
[4] = molecular target: FGFR1 (UniProt P11362); assay: as above
[5] = molecular target: FGFR3 (UniProt P22607); assay: as above
[6] = tested on: Fer (mouse); assay: as above
[7] = molecular target: Fes (UniProt P07332); assay: as above
[8] = molecular target: Fyn (UniProt P06241); assay: as above
[9] = molecular target: Hck (UniProt P08631); assay: as above
[10] = molecular target: Jak2 (UniProt O60674); assay: as above
[11] = molecular target: MERTK (UniProt Q12866); assay: as above
[12] = tested on: c-Abl (mouse); assay: as above
[13] = tested on: c-Src; assay: as above
[14] = molecular target: Grb2 SH2 (UniProt P62993); assay: SH2 binding enrichment of the phosphorylated peptide, bacterial display (enrichment ratio); higher = better substrate or ligand; peptides without Tyr show the background
[15] = molecular target: SHP2-C SH2; assay: as above
[16] = molecular target: c-Src SH2; assay: as above
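Wherever SH2 binding enrichment of the phosphorylated peptide, bacterial display is given: peptide library displayed on the E. coli surface as eCPX fusions, selected cells deep-sequenced, score is each peptide's frequency after selection divided by its frequency in the input.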
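Wherever phosphorylation enrichment, bacterial display is given: 11-residue human phosphosite peptides and single-mutation variants displayed on the E. coli surface, counted by deep sequencing, each peptide's frequency after selection divided by its frequency in the unselected input library; frequency after pTyr selection over input frequency; kinase dosed for 20-30% of maximal phosphorylation in three min.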

Sequence of FGFR3 (P22607 whole entry, looked up): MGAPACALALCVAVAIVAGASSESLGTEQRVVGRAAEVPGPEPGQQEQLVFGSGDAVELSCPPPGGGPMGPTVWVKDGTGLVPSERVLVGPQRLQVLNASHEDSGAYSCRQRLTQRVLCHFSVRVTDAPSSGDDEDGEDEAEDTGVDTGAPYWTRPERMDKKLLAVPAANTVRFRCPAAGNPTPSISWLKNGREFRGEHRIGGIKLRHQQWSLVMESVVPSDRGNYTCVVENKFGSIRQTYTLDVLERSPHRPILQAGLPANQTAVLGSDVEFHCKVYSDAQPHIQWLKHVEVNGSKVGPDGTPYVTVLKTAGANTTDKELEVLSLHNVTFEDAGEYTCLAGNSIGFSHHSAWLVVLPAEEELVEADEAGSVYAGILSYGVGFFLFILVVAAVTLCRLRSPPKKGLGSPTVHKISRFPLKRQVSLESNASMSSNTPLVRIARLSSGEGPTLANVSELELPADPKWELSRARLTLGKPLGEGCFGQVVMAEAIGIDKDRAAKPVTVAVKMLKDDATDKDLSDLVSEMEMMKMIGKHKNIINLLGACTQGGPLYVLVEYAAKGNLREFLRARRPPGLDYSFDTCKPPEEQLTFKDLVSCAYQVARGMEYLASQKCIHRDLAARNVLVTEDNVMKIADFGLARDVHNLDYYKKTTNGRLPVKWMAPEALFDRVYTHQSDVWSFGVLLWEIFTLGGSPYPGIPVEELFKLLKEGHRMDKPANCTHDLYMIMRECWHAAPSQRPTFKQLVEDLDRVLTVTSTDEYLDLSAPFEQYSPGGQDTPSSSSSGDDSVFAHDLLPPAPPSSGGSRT
Sequence of MERTK (Q12866 whole entry, looked up): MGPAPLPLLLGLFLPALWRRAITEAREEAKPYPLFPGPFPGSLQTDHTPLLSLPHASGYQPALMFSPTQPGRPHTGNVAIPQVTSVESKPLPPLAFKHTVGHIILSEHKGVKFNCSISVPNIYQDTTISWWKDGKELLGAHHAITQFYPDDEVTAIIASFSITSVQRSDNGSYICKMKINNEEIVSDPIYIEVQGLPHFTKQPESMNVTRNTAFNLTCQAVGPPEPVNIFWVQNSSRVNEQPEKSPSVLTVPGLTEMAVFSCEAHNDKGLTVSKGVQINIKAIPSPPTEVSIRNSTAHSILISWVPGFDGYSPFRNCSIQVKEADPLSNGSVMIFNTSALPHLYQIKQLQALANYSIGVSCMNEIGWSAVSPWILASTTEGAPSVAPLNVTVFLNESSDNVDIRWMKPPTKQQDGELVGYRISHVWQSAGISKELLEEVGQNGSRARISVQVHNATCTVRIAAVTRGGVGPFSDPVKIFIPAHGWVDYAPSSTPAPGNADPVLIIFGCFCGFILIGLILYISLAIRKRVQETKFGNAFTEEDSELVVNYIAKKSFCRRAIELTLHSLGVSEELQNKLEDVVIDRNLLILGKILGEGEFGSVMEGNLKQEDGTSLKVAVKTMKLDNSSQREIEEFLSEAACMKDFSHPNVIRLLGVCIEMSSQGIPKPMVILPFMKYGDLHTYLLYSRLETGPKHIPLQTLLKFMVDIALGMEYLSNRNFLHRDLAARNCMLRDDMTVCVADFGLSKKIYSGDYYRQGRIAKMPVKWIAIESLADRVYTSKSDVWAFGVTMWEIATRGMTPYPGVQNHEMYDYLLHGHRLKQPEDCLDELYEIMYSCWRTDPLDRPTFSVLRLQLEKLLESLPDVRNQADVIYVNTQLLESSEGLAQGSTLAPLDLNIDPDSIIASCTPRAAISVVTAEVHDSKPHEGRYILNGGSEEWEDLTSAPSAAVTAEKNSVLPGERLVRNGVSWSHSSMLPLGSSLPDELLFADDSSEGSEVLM
Sequence of EPHB2 (P29323 whole entry, looked up): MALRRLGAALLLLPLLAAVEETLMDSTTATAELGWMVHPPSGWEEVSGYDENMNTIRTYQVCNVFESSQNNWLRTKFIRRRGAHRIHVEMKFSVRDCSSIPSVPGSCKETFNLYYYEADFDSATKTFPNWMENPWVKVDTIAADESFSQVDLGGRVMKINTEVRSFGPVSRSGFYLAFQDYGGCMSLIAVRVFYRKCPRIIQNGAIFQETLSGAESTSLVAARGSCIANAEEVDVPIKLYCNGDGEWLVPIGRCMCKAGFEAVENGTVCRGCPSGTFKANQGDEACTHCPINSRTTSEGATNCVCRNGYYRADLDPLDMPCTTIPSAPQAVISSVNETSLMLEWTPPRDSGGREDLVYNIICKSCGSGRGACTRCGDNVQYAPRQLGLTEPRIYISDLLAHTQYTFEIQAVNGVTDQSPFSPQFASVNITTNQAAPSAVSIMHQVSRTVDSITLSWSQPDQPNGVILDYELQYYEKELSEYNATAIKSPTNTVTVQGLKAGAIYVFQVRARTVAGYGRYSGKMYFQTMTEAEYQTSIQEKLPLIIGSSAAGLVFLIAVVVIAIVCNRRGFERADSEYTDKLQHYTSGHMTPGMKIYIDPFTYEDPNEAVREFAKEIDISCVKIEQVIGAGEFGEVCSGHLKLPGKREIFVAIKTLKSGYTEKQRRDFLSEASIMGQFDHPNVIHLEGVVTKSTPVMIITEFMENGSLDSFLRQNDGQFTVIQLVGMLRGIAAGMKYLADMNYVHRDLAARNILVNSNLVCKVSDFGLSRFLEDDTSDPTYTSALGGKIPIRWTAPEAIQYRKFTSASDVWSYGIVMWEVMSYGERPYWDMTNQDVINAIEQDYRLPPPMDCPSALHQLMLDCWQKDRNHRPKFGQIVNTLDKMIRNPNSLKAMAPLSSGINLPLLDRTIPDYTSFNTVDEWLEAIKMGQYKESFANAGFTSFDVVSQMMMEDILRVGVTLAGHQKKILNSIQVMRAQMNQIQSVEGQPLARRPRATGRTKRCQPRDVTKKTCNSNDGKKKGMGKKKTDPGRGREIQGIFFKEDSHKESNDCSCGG
Sequence of Hck (P08631 whole entry, looked up): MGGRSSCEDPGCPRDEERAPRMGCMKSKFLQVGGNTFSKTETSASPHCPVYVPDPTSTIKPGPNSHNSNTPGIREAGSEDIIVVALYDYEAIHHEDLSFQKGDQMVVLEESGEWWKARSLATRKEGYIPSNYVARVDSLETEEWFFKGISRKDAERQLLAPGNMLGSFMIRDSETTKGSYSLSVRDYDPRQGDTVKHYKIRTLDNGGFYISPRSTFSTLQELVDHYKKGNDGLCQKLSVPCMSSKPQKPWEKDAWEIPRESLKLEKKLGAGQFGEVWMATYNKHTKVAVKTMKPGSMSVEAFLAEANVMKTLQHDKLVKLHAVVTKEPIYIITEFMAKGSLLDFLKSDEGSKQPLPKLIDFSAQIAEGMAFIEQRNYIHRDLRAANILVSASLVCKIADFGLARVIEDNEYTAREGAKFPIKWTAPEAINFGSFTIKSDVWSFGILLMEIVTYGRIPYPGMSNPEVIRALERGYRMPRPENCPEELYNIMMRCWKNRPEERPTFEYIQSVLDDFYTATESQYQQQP
Sequence of Fes (P07332 whole entry, looked up): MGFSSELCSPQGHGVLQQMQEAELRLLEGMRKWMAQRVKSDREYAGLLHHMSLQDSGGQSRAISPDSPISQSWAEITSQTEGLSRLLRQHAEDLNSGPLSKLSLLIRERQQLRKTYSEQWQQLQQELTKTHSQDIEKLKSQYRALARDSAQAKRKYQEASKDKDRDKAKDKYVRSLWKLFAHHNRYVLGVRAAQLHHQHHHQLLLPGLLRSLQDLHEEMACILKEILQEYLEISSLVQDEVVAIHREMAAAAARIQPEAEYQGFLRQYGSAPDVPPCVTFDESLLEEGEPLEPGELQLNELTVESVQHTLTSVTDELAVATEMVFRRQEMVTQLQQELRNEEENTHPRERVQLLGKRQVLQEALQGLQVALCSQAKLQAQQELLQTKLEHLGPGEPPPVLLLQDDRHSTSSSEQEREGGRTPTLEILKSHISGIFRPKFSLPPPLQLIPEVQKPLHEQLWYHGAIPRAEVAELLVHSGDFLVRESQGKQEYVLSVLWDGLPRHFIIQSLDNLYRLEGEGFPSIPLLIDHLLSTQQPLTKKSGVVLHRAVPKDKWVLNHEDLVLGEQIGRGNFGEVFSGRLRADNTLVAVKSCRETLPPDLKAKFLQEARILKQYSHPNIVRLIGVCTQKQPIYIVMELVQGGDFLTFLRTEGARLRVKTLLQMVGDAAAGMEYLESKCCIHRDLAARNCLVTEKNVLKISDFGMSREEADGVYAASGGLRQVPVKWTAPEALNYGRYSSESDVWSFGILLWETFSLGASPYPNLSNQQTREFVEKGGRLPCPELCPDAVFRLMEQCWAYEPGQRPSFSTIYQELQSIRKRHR
Sequence of FGFR1 (P11362 whole entry, looked up): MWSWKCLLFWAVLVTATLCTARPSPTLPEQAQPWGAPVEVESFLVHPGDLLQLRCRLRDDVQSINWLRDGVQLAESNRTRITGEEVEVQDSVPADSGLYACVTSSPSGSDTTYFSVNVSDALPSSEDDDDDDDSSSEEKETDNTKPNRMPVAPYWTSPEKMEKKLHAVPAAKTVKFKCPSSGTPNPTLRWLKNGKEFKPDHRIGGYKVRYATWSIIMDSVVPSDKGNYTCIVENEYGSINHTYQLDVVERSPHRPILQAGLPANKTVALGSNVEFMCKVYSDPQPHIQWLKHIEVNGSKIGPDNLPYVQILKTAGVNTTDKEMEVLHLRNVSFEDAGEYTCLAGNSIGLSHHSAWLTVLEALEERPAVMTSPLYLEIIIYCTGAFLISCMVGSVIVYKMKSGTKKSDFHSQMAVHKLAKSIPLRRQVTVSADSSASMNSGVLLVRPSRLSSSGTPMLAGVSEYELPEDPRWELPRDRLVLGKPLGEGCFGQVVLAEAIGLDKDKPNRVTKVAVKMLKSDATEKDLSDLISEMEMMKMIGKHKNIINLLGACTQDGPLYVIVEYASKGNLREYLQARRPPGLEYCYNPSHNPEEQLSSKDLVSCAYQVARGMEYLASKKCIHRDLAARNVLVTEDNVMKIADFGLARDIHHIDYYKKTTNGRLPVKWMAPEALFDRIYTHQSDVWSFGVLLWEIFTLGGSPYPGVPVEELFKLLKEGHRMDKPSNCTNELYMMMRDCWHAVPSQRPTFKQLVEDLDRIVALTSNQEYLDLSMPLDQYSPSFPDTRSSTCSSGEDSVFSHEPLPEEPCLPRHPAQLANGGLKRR

Sequence	SH2 binding enrichment [14]	SH2 binding enrichment [15]	SH2 binding enrichment [16]	phosphorylation enrichment [1]	phosphorylation enrichment [2]	phosphorylation enrichment [3]	phosphorylation enrichment [4]	phosphorylation enrichment [5]	phosphorylation enrichment [6]	phosphorylation enrichment [7]	phosphorylation enrichment [8]	phosphorylation enrichment [9]	phosphorylation enrichment [10]	phosphorylation enrichment [11]	phosphorylation enrichment [12]	phosphorylation enrichment [13]
DSFATYFRWVL [H2BW1_Y84_R87W]	1.28	1.32	0.953	1.53	1.85	3.54	1.98	1.98	2.46	1.47	2.76	5.6	5.48	4.5	1.04	3.21
DVRQEYSGMIL [PLXND1_Y616_P617S]	0.696	0.39	0.536	0.795	0.432	0.531	0.504	0.565	0.567	0.891	0.434	0.498	0.678	0.35	0.484	0.477
DVSVVYSEVKT [FCRL4_Y493]	0.789	11.9	1.11	0.991	0.631	0.592	0.775	0.751	4.14	1.05	4.99	5.21	1.07	0.834	1.22	4.13
DYNPNYCFAGK [ALK_Y1096]	0.799	0.788	0.532	1.82	2.62	1.07	0.641	0.778	0.735	1.03	0.607	0.563	0.873	0.906	0.812	0.63
EDDIIYTQDFT [STK11_Y362]	0.767	0.734	0.554	1.41	0.869	0.647	0.652	0.821	0.655	1.37	0.796	0.742	1.29	0.631	0.957	1.11
EDGFAYVPLKD [PRIM2_Y208]	0.992	0.563	0.55	1.25	0.567	0.649	0.501	0.759	0.492	1.27	0.479	0.519	1.18	0.42	0.86	0.523
EEETDYTPVWC [UROD_Y30_G25E]	0.997	0.791	0.638	1.58	0.689	0.589	0.554	0.876	0.771	1.25	0.484	0.578	1.16	0.504	0.937	0.503
EEGESHVCSSD [DCX_Y125_Y125H]	1.25	0.83	0.623	0.96	0.465	0.545	0.518	0.573	0.519	1.07	0.54	0.497	0.945	0.528	0.673	0.525
EEQKRYFNAMK [SCN5A_Y1494_K1493R_YF]	1.04	1	0.541	0.591	0.353	0.445	0.49	0.46	0.424	0.645	0.348	0.451	0.673	0.41	0.446	0.435
EESREYDRLYE [PIK3R1_Y463_K459E]	0.671	0.701	7.14	1.42	0.761	0.7	0.708	1.19	0.641	1.44	0.751	0.865	1.45	0.465	1.02	0.714
EGTATYAAAVL [JUP_Y644]	0.847	0.722	0.493	0.587	0.561	1.24	0.394	0.458	1.06	0.661	0.858	0.987	0.501	0.438	0.639	0.897
EMQAAYQKVVA [HBD_Y131_Q126E]	0.688	0.498	0.65	0.614	0.393	0.42	0.405	0.574	0.446	0.656	0.472	0.535	0.581	0.399	0.421	0.391
ENQEIYQKAFD [KPNA1_Y493]	0.83	0.737	0.47	1.43	0.579	0.576	0.522	0.643	0.686	1.15	0.866	1.2	1.08	0.616	1.03	1.45
EPAVLYNLKER [MYH7_Y103_D107E]	0.773	0.653	0.486	0.804	0.354	0.547	0.506	0.524	0.332	0.854	0.511	0.72	0.74	0.388	0.687	0.694

More lines, main results first:

SH2 binding enrichment [14]	SH2 binding enrichment [15]	SH2 binding enrichment [16]	Sequence	phosphorylation enrichment [1]	phosphorylation enrichment [2]	phosphorylation enrichment [3]	phosphorylation enrichment [4]	phosphorylation enrichment [5]	phosphorylation enrichment [6]	phosphorylation enrichment [7]	phosphorylation enrichment [8]	phosphorylation enrichment [9]	phosphorylation enrichment [10]	phosphorylation enrichment [11]	phosphorylation enrichment [12]	phosphorylation enrichment [13]
0.79	0.937	0.524	DQVEQCKKELE [LMNA_Y259_Y259C]	1.2	0.59	0.625	0.528	0.733	0.518	1.27	0.52	0.703	1.1	0.49	0.746	0.562
2	1.18	1.13	DSFSSYCNAVA [SLC20A2_Y436_YF]	1.24	0.642	0.826	0.497	0.812	0.608	1.11	0.509	0.544	1.06	0.503	0.801	0.579
0.724	0.789	0.738	DVMDLYKTLRG [NR3C1_Y30_F29L]	0.773	0.483	0.535	0.585	0.861	0.381	0.776	0.437	0.904	0.517	0.431	0.521	0.421
0.684	0.589	0.456	DYDHSYYFIAT [ESD_Y262_G257D]	2.9	5.16	3.27	11.7	9.9	1.49	1.13	1.48	2.24	7.22	3.77	0.877	1.81
0.813	0.584	1.43	DYTEAYNPKIK [CLK1_Y305]	1.02	0.422	0.453	0.624	0.592	0.358	0.913	0.456	0.596	0.641	0.419	0.678	0.483
0.765	0.538	0.485	EATKGYPDDPT [G6PD_Y322_L323P]	0.901	0.501	0.673	0.465	0.609	0.483	1.05	0.479	0.508	1.07	0.515	0.786	0.493
0.82	0.577	0.646	ECKEAYHEGEC [PRKN_Y372]	1.32	0.524	0.638	0.626	0.652	0.498	1.26	0.48	0.654	1.18	0.456	0.761	0.541
0.767	0.671	0.506	EDSEFYKAFEE [CASQ2_Y179_YF]	1.2	0.534	0.659	0.482	0.739	0.4	1.21	0.442	0.543	1.07	0.454	0.693	0.567
0.884	0.588	0.549	EEGNPYFSSTR [MCCC2_Y520_A524T_YF]	0.865	0.509	0.527	0.484	0.621	0.413	0.814	0.505	0.595	0.823	0.349	0.585	1.14
1.32	0.522	0.813	EEQKRYYNAMK [SCN5A_Y1494_K1493R]	0.623	0.512	0.49	0.511	0.48	0.436	0.648	0.471	0.46	0.479	0.351	0.352	0.327
0.865	0.769	0.674	EHAGEYGAEAL [HBA1_Y25_A20E]	0.832	0.423	0.543	0.595	0.681	0.427	0.896	0.489	0.592	0.693	0.455	0.612	0.468
0.771	0.494	0.376	EKKDVYKTGEQ [CFH_Y1008_A1010T]	0.7	0.394	0.411	0.478	0.524	0.447	0.663	0.471	0.561	0.437	0.382	0.42	0.438
0.918	0.803	0.643	EMFNPCYGLFE [NEDD4L_Y679_Y679C]	1.04	0.489	0.689	0.543	0.713	1.14	1.49	4.58	1.43	1.2	0.765	1.03	5.2
0.707	0.685	0.606	EQFELHCEMGS [CBL_Y371_Y371H_YF]	1.17	0.71	0.623	0.496	0.802	0.577	1.49	0.523	0.58	1.25	0.526	0.995	0.528
0.664	0.809	0.431	EQKKYYNAMKN [SCN5A_Y1495_K1500N]	0.507	0.388	0.335	0.336	0.382	0.354	0.536	0.292	0.405	0.489	0.356	0.489	0.359
